Experimental data as given in the nanobody polyreactivity screen of Harvey et al. (2022).

Experiment: yeast display, Sf9 membrane polyspecificity reagent, FACS + sequencing; frameworks hold sequencing errors
Summary of the method: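 Nanobodies came from a synthetic yeast display library in Saccharomyces cerevisiae BJ5465, induced with galactose for 36–48 hours and stained for 1 hour at 4 °C with 10% biotinylated, detergent-solubilized Sf9 membrane reagent. Cells were enriched on streptavidin microbeads and then FACS-sorted, with low and high (top ~1%) gates set on anti-HA fluorescence for expression and streptavidin fluorescence for reagent binding. Each polyreactivity label reflects the gate a clone came from. Genes were amplified by colony PCR, sequenced by MiSeq 2 × 250 and filtered by CDR length.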

Row | Sequence | polyreactivity (PSR sort gate)
1 | QVQLVESGGGLVQAGGSLRLSCAASGSTFKQYTMGWYRQAPGKERELVAAISWSGTSTYYADSVKGRFTISRDNAKNTVYLLMNSLKAEDTAVYYCAAVSYVWQYYYWGQGTQVTVSS | high polyreactivity
2 | QVQLVESGGGLVQAGGSLRLSCAASGSTFSGYVMGWYRQAPGKERELVAAITGRGGNTYYADSVKGRFTISRDNGKNTVYLQMNSLKPEDTAVYYCAAARRSYQYGYWGQGTQVTVSS | high polyreactivity
3 | QVQVVESGGGFVQAGGSLRLSCAASGRTFAVYAMGWYTQAPGKEREFVATISVSDGSTYYADTVKGRFTISRDNAKNTVYLQMNSLKPEDTAVYYCAAQRWTVKYNYWGQGTQVTVSS | high polyreactivity
4 | QVQLEESGGGLVQAGGSLRLSCAASGSTFYYYALGWYRQAPGKERELVATINKIVGITYYADSVKGRFTISRDNAKNTVYLQRNSLKPEDTAVYYCAVQDTSYDVQYSYGYWGQGTQVNVSS | low polyreactivity
5 | QVQLVQSCRVLLQARGSHTLSCADSGTTFGINANGCYTHSPGKERELVAAITFISGSTNYADSVKGRFTISRDNAKNTVYLQMNSLKPEDTAVYYCAADSVYYAGYDVDYWGQGTQVTVSS | low polyreactivity
6 | QVQLVESGGGLVQAGGSLRLSCAASGYIFRAYAMGWYRQAPGKERELVAAITKRSGTTYYADSVKGRFTISRDNAKNTVYLQMNSLKPEDTAVYYCAAKTLYNSGTQDRAMGYWGQGTQVTVSS | high polyreactivity
7 | QVQLVESGGGLVQAGGSLRLSCAASGSTFTVYAMGWYRQAPGKERELVAAISWGGGSTNYADSVKGRFTISRDNAKNTVYLQMNSLKPEDTAVYYCNADIDVIIGSWGDYWGQGTQVTVSS | low polyreactivity
8 | QVQLVESGGGLVQAGGSLRLTCAASGFIFTYYAMGWYRQAPGKERELVAAISSSGGRTAYADSVKGRYTISRDNAKNTVYLQMNSLKPEDTAVYYCAARIRASGGKDGYNSWGQGTQVTVSS | high polyreactivity
9 | QVQLVESGGGLVQAGGSLRLSCAASGFTFTGYAMGWYRQAPGKERELVAAISSSGGSTYYADSVKGRFTISRDNAKNTVYLQMNSLKPEDTAVYYCNARISDAHYQCNYFLVLYDYWGQGTQVTVSS | low polyreactivity
10 | QVHLVESGGGLVQAGGSLRLSCAASGFTFSYYAMGWYRQAPGKERELVAVISDRGGITYYADSVKGRFTISRDNAKNTVYLQMISLKPEDTAVYYCAAQNPRYNYRYYYWGQGTQVTVSS | low polyreactivity
11 | QVQLVESGGGLVQAGGSLRLSCAASGYTFPSNAMGWYRQAPGKERELVAAISSGGRTNYADSVKGRFTISRDNAKNTVYLQMNSLTPEDTAVYYCNADGGPGYPRAYDYWGQGTQVTGSS | low polyreactivity
12 | QVQLVESGGGLVQAGGSLRLSCAASGSIFATYAMGWYRQAPGKERELVAAITASDGSTNYADSVKGRFTLSRDNAQNTVYLQMNSLKPEDTAVYYCATDAPYRTDSDSGFDAGYDYWGQGTQVTLSS | low polyreactivity
13 | QVQLVESGGGLVQAGGSLRLRCAASGITFKWYAMGWYRQATGKEREFVAIISTRAGSTYYADSVKGRFTISRDNAKNTVSLQMNSLIPEDSAVYYCNAVRSRGLHRRGDFDYWGQGTQVTVSS | high polyreactivity
14 | QVQLEESGGGLVHAGGSLRLTCDAYGYIFALNPIVWNRQAPGNESEVVAAINDSGDSTYYADSLKGRFTISRDNSKNTVYLQMNSLNPEDSAVYYCAADTRYRYGAFPYYEYDNWGQGTQVTVSS | low polyreactivity
15 | QVQLVESGGGLVQAGGSLRLSCAASGRIFVRNAMGWYRQAPGKERELVAAITRTGASTYYADSVKGRFTISRDNAKNTVYLQMNSLKPEDTAVYYCAAVWGWPYWVYRYDYWGQGTQVTVSS | high polyreactivity
16 | QVQLVESGGGLVQAGGSLRLSCAASGRIFGRNVMGWYRQAPGKERELVAAITTGGGSTYYADSVKGRFTISRDNAKNTVYLQMNSLKPEDTAVYYCATDRRHEYSSRRYYYWGQGTQVTVSS | high polyreactivity
17 | QVQLVESGGVLDQAGGSLRLRCAASGSTYYRNAMGWYRQAPGKERELVATINRGGSTYYADSVKWRFTISRDNAKNTVYLQMNSLKPEDPAVYYWAKDPYYAGRYRGDYWGQGTQVTVSS | high polyreactivity
